Values of other authors in paper PMC11172262.

Molecular target: Claudin-1 (Homo sapiens) (UniProt O95832)

Kd: 47 nM
Substance: Claudin-1 ECL1 (from UniProt O95832)
